Results published in patent US20220089705A1.

Experiments:
[1] = target: aP2 (species not stated in the passage) (Homo sapiens (Human)) (UniProt P15090); experiment: SPR and Octet ranking of H3 variants; value of the parent H3; species of aP2 not stated
[2] = target: aP2 (species not stated in the passage) (Homo sapiens (Human)) (UniProt P15090); experiment: column head 'Affinity'; assay and aP2 species not printed on the sheet (the two other values of the column, 6.03 and 5.82 µM, equal the human aP2 averages of FIG. 31)

B1: H3, mouse anti-aP2 monoclonal antibody (H3 gL1/gH1) (antibody, V domains shown)
VH: QVQLQQPGAELVKPGASVKLSCKASGYTFTSNWITWVKQRPGQGLEWIGDIYPGSGSTTNNEKFKSKATLTVDTSSSTAYMQLSSLTSEDSAVYYCARLRGYYDYFDFWGQGTTLTVSS
VL: EVVLTQSPALMAASPGEKVTITCSVSSSISSSNLHWYQQKSETSPKPWIYGTSNLASGVPVRFSGSGSGTSYSLTISSMEAEDAATYYCQQWSHYPLTFGAGTKLELK
- Kd [1]: < 0.07 µM

B2: CA33, rabbit-mouse hybrid anti-aP2 monoclonal antibody (Rabbit Ab 909) (antibody, V domains shown)
VH: QSVEESGGRLVTPGTPLTLTCTVSGFSLSTYYMSWVRQAPGKGLEWIGIIYPSGSTYCASWAKGRFTISKASTTVDLKITSPTTEDTATYFCARPDNDGTSGYLSGFGLWGQGTLVTVSS
VL: DVVMTQTPASVSEPVGGTVTIKCQASEDISRYLVWYQQKPGQPPKRLIYKASTLASGVPSRFKGSGSGTDFTLTISDLECDDAATYYCQCTYGTYAGSFFYSFGGGTEVVVE
- Kd [2]: 6.5 µM
